In the DeepSol protein solubility set:

Assay: soluble on expression in E. coli; label from the status in PepcDB or PDB records

Soluble on expression in E. coli, not soluble:
MGSDKIHHHHHHMFQRAFLLYNGKAGNGKTDKYLKDVVPRALQSIGELTIIPSKEKGDIESICREREVDLIIVMGGDGTVHECINGLAVSPSPPPLVVLPTGTCNDFARSLRIPLSFVEAGNLLESGTWKRVPLIQANHRCYTNFLGMGIITTASEGTNPELKETFGRFSYFLSALQSLREPSPFSYTITSTKGSMSGQAILLLVMHGQFLGTLPVQLDENAIEQPFVTIYIVKEGGLPFIKDLVKGLVSPAMVNESDHIDRMTCDQCQIETEPVLSIDMDGEIYMKTPVNITTVGKVITVRVPDVNVTSDADHTIGGAQDTP
MGSDKIHHHHHHMFQTLDHFLKSWEFEADATQKLLNSLTDESLKQEITSQNWTLGRIAWHTVAAIGIITSNTDLTFQAPAEDYPVPTSAQFIADSYHQASNAFVQALKTQWTDHTLQERINFIGQQMPNGSLLMFLIQHQNHHRGQMTVLMRQAGLTVPGIYGPAKEEWAKFGLEAPKM
MGSDKIHHHHHHMFSQNDNINILVIRFKRIGDAILSLPLCHSLKLTFPNSKVDFVLYEDVAPLFEGHPYIDNVITITKEEQKNPFKYIKKVYNVTRKKYDIIIDIMSTPKSELFCMFSRKTPFRIGRYKKKRGFFYNYKMKEKESLNKVDKFLNQLLPPFEEVGFDVKKDYDFKFFAEKKEKEKYKQKMLETGVDFSKPVIAFSIYSRVAHKIYPIDKMKEVVKFLINRYSAQIIFFYSADQKDEIQKIHKEIGDFKNIFSSIETPTIKNLVPFLENCDYYIGNEGGARHLAQGVGIPTLAIFSPSADLKEWLPFPSEKNMGISPIDMLEKNALSLDDFNKMNPEEQFSLIDIETIKEMSDELIEKNKRK
MGSDKIHHHHHHMFSYEVIRQFTETEHHLYRYIMDNRDKVMFMRVRELSEVTHVSPASIVRFTRKLGCEGFSEFKVKLKQEATREVKKKTADTVEVLEEFFERTMNRDYDHVLDAAAEIINEADLVVFFGIGTSGILAEYGSRFFSNMKKRTFYIKDPFYPNPGEQFKNKAVMIILSVSGETDQVLEQAQNMQQYGSRIISITNTSHNTLAGLSDVNIPYYVTQEMVDKTNITTQIPVLFLLEAMAKKNYNQEQEE
MGSDKIHHHHHHMGDIQYTVRDDLKLFVNSIMVQQSADGNARFRLPLYADGYPGIMFQQSESGFFRFPESKQLSEFFLYGQTLEPISLEVQGTYRFVVFQLYPFASKYLLGIDPKELNDACYDLMQFQYIDMEVYSKQLTAAPDPESLIACMSDGVAALIGLNKPPHNDRIQQAIKQIIETEGRMRISDLSEAVCLSERTLERNFLGEVGLSPKQFAKIIQFQSSLTKLTDANAETLTAIGLDSGFTDQSHFIRVFKQYTGQTPSQYIKNQTR
MGSDKIHHHHHHMGFDLDVEKKKENRNIPQANNLKIKVIGVGGAGNNAINRMIEIGIHGVEFVAVNTDLQVLEASNADVKIQIGENITRGLGAGGRPEIGEQAALESEEKIREVLQDTHMVFITAGFGGGTGTGASPVIAKIAKEMGILTVAIVTTPFYFEGPERLKKAIEGLKKLRKHVDTLIKISNNKLMEELPRDVKIKDAFLKADETLHQGVKGISELITKRGYINLDFADIESVMKDAGAAILGIGVGKGEHRAREAAKKAMESKLIEHPVENASSIVFNITAPSNIRMEEVHEAAMIIRQNSSEDADVKFGLIFDDEVPDDEIRVIFIATRFPDEDKILFPEGDIPAIYRYGLEGLL
MGSDKIHHHHHHMGKVLFVSGIDTDIGKSVATGYYARYLMQLGYSVITQKMVQTGCCDISSDILIHRKIQGVELADEDRKGETCCYLFDYPCSPYLAACLQNTYIDEKTIEKYTALLAQKYDYVLLEGAGGLMVPYAEGKTTLDYITAHNYPLILVTSGRLGSINHTLLSLEVCAHQNINVDTLIYNLYPPTDKLITQDTQQYFKSYLAKRFPTTKFMLMQKIDF
MGSDKIHHHHHHMGLASPWQVSISSFDAEKKRLDIHLDVAPGSTFCCPECGILKLQSFPWSGRDSGFTLLFEAMIMVMARSMAVKAIATIVGEHDTRIWRIVHHYVDQAREMEDYSAVTTVGVDEPSSKRGHNSVTLFADLARSKVLFATEGKDASTVERFRDDLVAHKGNPASVTECCSDMSPACISGIGSHFVNAHLSFDKFHVMQIINHAVDEVRRQEQQERPELKKSRYLWLKNQQNLKAKQRNRLEELSLAKLNLKTARADRMRLAFQECFNQPVTLAESFLKKWCFRAANSISPYPLETARSQDNDGWTHRASWAGI
MGSDKIHHHHHHMGTIWPDSLPQSKGAKYTLVADVIRKAIDTKELEVGVKLPPVRELAYKLGITPGTVARAYTILTDEGLLNAEVGRGTFVAPPKRPVLDDVWSRQLYLLDERDDDNVSLFSPRLADMGQVALIRECLQKVAQGDPAMFLNYPTRDAYAGVRQAVVDWMSDLSLGPLTADDIVLTHGGQSGLCVVFQTVFKGPKPVVLVEDLSYAGFRRAAELMRADVIGVRMDKWGIDPMSLDLTARQSPAQAICVSPEVQNPTGSRSPLERRKEVVEVARKHDLQIIEDDCYRMGEPQAPSYRALAPERGWHVSSVSKTLTPALRVGFAIAPEGQSAGLRRSAEYGYFGLAQPLAELTRLMLSDPRARDLARAVQRRMAEYVRVTVNTLGGFDLVWDSAVPFVWLRLPSGWRSAAFTRAAERAGVQVRSADEFALRDGRAPNAVRIAMNAHVSLERFETAMVRLRALLDNPPEQISV
MGSDKIHHHHHHMGVMKTPGVYIVEKNAFPNSVVEVATAVPAFIGFTQKAINGNKSLLNKPWRITSMAEFRRYYGEAPEPEFEIAEKPADSLEDAAIVMGDKSYVISQSNTKYLLYYSMMLFFQNGGGPCYIVSVGNYTNDVEAAKLLAGIPTLLKEQEPTMLAIPEAILLAEDDCISVQQASLAHCGGVMRNRVAILDVWNGHLDRQDPSGDCIESFRSKLGINYLDFSSAYYPWLHTTIVQDSDLSFKNIANTDVLIGLLKEEVTASFTDLDGLTDDQLASPSNKLRVAKRDQMLTEVDSLATVAGDAQIVLLNKTLSSMSPLYMSILLDIKGKLNLLPPSACMAGIYTMVDNARGVWKAPANVSLNAVVSPAVNISHDEQEDLNVTTQGKSINAIRTFIGEGTLVWGARTLDGNSLDWRYISVRRTMIMLEESIRLAAKAYVFEPNTANTWTTLNSMITNFLTGIWKRGGLAGSVPADAFSVSVGLGSTMTSEDILEGILRITVLVAVTRPAEFIEITFQQQMQKS
MGSDKIHHHHHHMGVTGNNYTKIFHRMYWDGTPTPTQLAQELSKHGLAITGISLWQLYNGTLQFPIYVATERQLKSTQWVTFHRRKQLRCCPAGVFSVEYPVLAITNLSDAQAIETLEGAYAKAQGAKFAAEHARQYVPQRNRELLRRAVVGVDSPPEKLLITALREQGIDCHANVLVGDYRWDIQLDRHRVLIEVDGFEFHRFKPENQDAFVRDRWKTNDATLRGYLCLHYAARSVYRHTAVIVDQVQAAIRVAPARGYPFDASAMWHRGCWKWS
MGSDKIHHHHHHMGVVRTDKWLKRYVVQWPKAQVAGEKFELQQKLIISLLKDAFHTDHLDELQQQLLGQGLFLPTDDIELSYRALQDRAIWHLVHKQYTELREKWKGPNVPIYLFPVNTANPTIREQLGMKMGVSYRDKIVLFIGEMTSDQDVQALVTHEYHHCCRLTQLKLYEGTMTLLESMVMEGLAEKAVAEEVGRDALAIWTSRYDKADLHSLWALLLEQRMMKGRDRHYPYLFGGVGGIPEWAGYYLGYRIVDQAMKNDPTLTTTSMMKMEAEAILQRSFSAKRGRAVAVRGREISRDHS
MGSDKIHHHHHHMHARSLDKKPLDRQASIDSALRTVATEQAGIAALAEALENGLAAPFAQAVDMISKIEGRLIVTGVGKSGHIGSKIAATLASTGTPAFFVHPVEANHGDLGMIAKDDAIIAISWSGESKEMLGIVAYSRRFSIPLIAVTSGETSALARAADVVLLLPRTPEACPHGLAPTTSTLLQLVIGDALAIALLEARGFTPDHFRTFHPGGQLGANLTMVSEIMRVGDQMPLAVLGTKMPEAVMTLSQKKVGCVLIVDANGELAGIITDGDVARNLHRNLADVIVDEVMTRTPKTVDPQTLAGTAIALLNEHNIGALVVTRNNMPLGVVHFHDLLRIGAA
MGSDKIHHHHHHMHCGIDYGTSNSSLGIVKDGKVVQAELERNSVYLPSAIYRAFPEHELNDDIASRSIRQQLGSAQGLLYGSEAIEAYVRHPGDGLFMKSPKVFLGSDLSKDQMDFFQIVIAKMMTHILERAREFYGQELRQAVIGRPIRYHGIRGEEGDKQALAIMEHAAAGAGLEEVVFMYEPLAAALDYEQCLDRDEVLLVVDVGGGTTDCSVVKVGPSYRDKRERSDDLLAYSGNRIGGVDLDINLGWHTIMPLFGRGTDELHNKAFDAITVNSIPSQQAFYSRFEMPVHAQADTVRERLYRVWLDKLSSHLVRSAELAKIELSRRTSHVLELGYVEDGLEVHVSREDFRQAIARSAEKIRQVIDDARQASASRPDKIYLTGGSAVSPVIQQVIREVVGDAVPFVSGNMHGSVACGLSVFANRHFA
MGSDKIHHHHHHMHFDIKDLKLFLAISEEGSITRGAEKTYMSAASGSVRIRNLEQSINLRLLYRSSKGITLSSAGETFKHHASLIVNQMEMLRSDMQEHVKGIKGHVRIFSSITAIAEYLPPLLSHFLTLYNDVNIDLREYPSPEIVRSVIEGKTDLGIVAGNITTDNLEILPFRTDRLVLITATDHPFADRKSVTFHELIQYEQISLPEGTGMFEFIRKKAELVPSKLKIRIQVGNFETFCRMVEAKVGIGIMPHSAASRLRQLHEFSIIDLDEFWSLRKLQICARSFDKLPGFTQKLVTMLTAQTE
MGSDKIHHHHHHMHIRKYDHDYSRRFFMEQAAKGIATAGVLGPLWPMIANSADITKAYPDELMSIDAWSKGKIKTGDFITAENVEIVKELLDPVAYHHIKTMGRKIRIVPTTRDITRMFPAEYLEATLRNQGKAKLDANSNVVSSDGKPWIGGNPFPDAKTGLEVAANLTMCWGRKDNSLTAIRDWEVAPDGSMSYQYDFAWVEQNTTARADGKVLPGGDELLRYNAVYFTGPSDVKGTSYLNTWYYDQRKFPELVGYLPAFKRVRKFPTNQRFEPLVPGMNLYLSDAWAAGDPMLTWGNYKIVGRGPMLGAQSQTWYGDRPNWERPVQGGPKNQTFFETQMELCPDVVIFEAEPTGYPRAPVGKKRVWVDVRNQMYVAYITYDRRGEIFKSFEPQYSFLEKGDKKLMDGKSTAWHWTAVQCYNFQDGRMTRFQPVTSIAGGMSTAFNIDGLYEKYMTQQALQRMGT
MGSDKIHHHHHHMHLAAEQMNLSQPAVSKMLKEIEGLLGFQVFERLPRNMPVTALGEHVIRYAQRVLNDAKHFVEDIEILRLGGHGFLKVGGIFAATAVVIPNSIIEIKKQWPLLSIDVVEQTSDHLMEMLSEHTLDLAIGRFTDVTQSQFFDFQPLGPEPFCIVVNNAHPCAQKKFCTLEELLKWPWVLYPKGTPIRERMEGAFARAKVKIPLNTVNTMSMQTFLQILKGAPMVGMLPEAMVIDQVKEGQLQILETDLILDAQDYGILTRKDEPVSDIAAAFINILLKNAKRK
